# Measured values published in paper PMC8113471, “Tanc2-mediated mTOR inhibition balances mTORC1/2 signaling in the developing mouse brain and human neurons” (Nature Communications, 2021).
# Target: mTOR recombinant protein (Origene #TP320457) (UniProt P42345 1-2549)
# Assay: pull-down; GST-Tanc2 proteins (full-length, N, C) immobilised on glutathione agarose beads, incubated with mTOR recombinant protein (0.5 µg) or Deptor protein in RIPA buffer for 2 h at 4 °C; washed three times; Coomassie staining or immunoblot
# Details: both partners purified
row,binding result,Binder
1,binds,"GST-Tanc2-C (aa 1359-1990) (domain or fragment, Tanc2, human, aa 1359-1990, in pGEX-6P-1; also called C-terminal region of purified Tanc2; pGST-Tanc2-C; source: E. coli BL-21 (DE3), purified on glutathione sepharose 4B beads) REIQRLLLRVEEECRQMQQPQQPPPPPQPQQQLPEEAEPEPQHEDIYSVQDIFEEEYLEQDVENVSIGLQTEARPSQGLPVIQSPPSSPPHRDSAYISSSPLGSHQVFDFRSSSSVGSPTRQTYQSTSPALSPTHQNSHYRPSPPHTSPAHQGGSYRFSPPPVGGQGKEYPSPPPSPLRRGPQYRASPPAESMSVYRSQSGSPVRYQQETSVSQLPGRPKSPLSKMAQRPYQMPQLPVAVPQQGLRLQPAKAQIVRSNQPSPAVHSSTVIPTGAYGQVAHSMASKYQSSQGDIGVSQSRLVYQGSIGGIVGDGRPVQHVQASLSAGAICQHGGLTKEDLPQRPSSAYRGGVRYSQTPQIGRSQSASYYPVCHSKLDLERSSSQLGSPDVSHLIRRPISVNPNEIKPHPPTPRPLLHSQSVGLRFSPSSNSISSTSNLTPTFRPSSSIQQMEIPLKPAYERSCDELSPVSPTQGGYPSEPTRSRTTPFMGIIDKTARTQQYPHLHQQNRTWAVSSVDTVLSPTSPGNLPQPESFSPPSSISNIAFYNKTNNAQNGHLLEDDYYSPHGMLANGSRGDLLERVSQASSYPDVKVARTLPVAQAYQDNLYRQLSRDSRQGQTSPIKPKRPFVESNV"
2,binds,"GST-Tanc2 (full-length) (natural protein, Tanc2, human, aa 1-1990, subcloned from p3XFlag-Tanc2 (aa 1-1990) into pGEX-6P-1; Kept on the glutathione beads as bait; also called purified Tanc2 protein; pGST-Tanc2 (aa 1-1990); source: E. coli BL-21 (DE3), purified on glutathione sepharose 4B beads) not shown"
3,binds,"GST-Tanc2-N (aa 1-1358) (domain or fragment, Tanc2, human, aa 1-1358, in pGEX-6P-1; also called N-terminal region of purified Tanc2; pGST-Tanc2-N; source: E. coli BL-21 (DE3), purified on glutathione sepharose 4B beads) not shown"
